# In PMC8861016:
# Molecular target: LRP6mcherry2 (UniProt O75581)
# Assay: FRET or BRET; FRET-based FLIM (EGFP donor lifetime) on live HEK293T cells stably expressing CD44EGFP and LRP6mcherry2, induced with Wnt3a CM 1 h before analysis
# Chain of UniProt O75581 (O75581 20-1613): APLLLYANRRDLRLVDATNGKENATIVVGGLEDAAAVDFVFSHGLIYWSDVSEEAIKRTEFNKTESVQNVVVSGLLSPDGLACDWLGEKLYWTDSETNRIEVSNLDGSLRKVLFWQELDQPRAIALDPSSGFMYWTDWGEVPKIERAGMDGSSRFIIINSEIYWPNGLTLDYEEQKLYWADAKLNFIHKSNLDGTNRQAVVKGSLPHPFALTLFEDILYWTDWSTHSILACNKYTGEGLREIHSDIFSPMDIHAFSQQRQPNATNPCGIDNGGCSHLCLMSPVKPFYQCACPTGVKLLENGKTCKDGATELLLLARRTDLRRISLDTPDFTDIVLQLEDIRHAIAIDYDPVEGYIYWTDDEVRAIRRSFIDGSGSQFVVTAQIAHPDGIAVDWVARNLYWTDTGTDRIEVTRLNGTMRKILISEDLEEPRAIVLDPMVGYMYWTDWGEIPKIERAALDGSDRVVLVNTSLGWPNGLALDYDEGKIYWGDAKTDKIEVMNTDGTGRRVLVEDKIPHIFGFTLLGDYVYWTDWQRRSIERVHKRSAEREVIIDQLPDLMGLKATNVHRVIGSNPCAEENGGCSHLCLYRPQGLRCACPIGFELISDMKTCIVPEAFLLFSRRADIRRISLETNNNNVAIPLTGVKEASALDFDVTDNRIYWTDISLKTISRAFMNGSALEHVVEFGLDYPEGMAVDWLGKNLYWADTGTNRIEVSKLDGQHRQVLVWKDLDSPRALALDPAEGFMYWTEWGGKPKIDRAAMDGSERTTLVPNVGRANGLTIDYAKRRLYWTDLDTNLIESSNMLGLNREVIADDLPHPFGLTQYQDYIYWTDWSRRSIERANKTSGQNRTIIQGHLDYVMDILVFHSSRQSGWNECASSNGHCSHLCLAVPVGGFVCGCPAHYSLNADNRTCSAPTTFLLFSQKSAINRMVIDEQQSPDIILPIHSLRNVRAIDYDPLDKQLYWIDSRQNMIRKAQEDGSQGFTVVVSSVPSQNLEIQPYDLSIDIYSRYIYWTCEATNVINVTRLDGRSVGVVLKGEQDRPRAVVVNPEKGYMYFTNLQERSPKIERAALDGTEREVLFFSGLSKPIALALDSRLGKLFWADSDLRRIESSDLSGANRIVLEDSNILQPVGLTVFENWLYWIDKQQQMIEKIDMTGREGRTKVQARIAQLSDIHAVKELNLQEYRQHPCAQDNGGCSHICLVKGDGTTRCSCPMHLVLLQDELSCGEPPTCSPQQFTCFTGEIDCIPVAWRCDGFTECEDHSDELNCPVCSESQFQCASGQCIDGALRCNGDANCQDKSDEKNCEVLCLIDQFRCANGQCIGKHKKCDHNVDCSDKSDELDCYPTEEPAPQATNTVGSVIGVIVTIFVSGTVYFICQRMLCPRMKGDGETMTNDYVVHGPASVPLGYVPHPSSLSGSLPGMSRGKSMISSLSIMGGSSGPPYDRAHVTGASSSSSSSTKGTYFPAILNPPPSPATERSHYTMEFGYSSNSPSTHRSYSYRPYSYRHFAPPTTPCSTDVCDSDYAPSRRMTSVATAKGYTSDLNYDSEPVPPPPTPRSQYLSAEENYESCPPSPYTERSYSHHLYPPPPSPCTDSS
substance,measurement,value
CD44EGFP (from UniProt P16070 21-742) (receptor),EGFP donor fluorescence lifetime,2450 ps
same,FRET efficiency,7.5%
